B1: 6YSE (parent)
chain: HERALMVNRLQKLTRMLRVHPDPKWKQEQQELIKRLK

Variants of: B1
Experiment: folding stability dG (cDNA display proteolysis); higher = more stable
Details: PBS, room temperature

Variant | folding stability dG [kcal/mol]
HERALMVNRLQKLTRMLRVLPDPKWKQEQQELIKRLK | 0.97
HERALMVNRLQKLTRMLRVIPDPKWKQEQQELIKRLK | 1.06
HERALMVNRLQKLTRMLRVWPDPKWKQEQQELIKRLK | 1.39
HERALMVNRLQKLTRMLRVSPDPKWKQEQQELIKRLK | 1.26
HERALMVNRLQKLTRMLRVGPDPKWKQEQQELIKRLK | -0.186
HERALMVNRLQKLTRMLRVKPDPKWKQEQQELIKRLK | 1.57
HERALMVNRLQKLTRMLRVMPDPKWKQEQQELIKRLK | 1.06
HERALMVNRLQKLTRMLRVAPDPKWKQEQQELIKRLK | 0.952
HERALMVNRLQKLTRMLRVYPDPKWKQEQQELIKRLK | 1.47
HERALMVNRLQKLTRMLRVRPDPKWKQEQQELIKRLK | 1.19
HERALMVNRLQKLTRMLRVQPDPKWKQEQQELIKRLK | 0.946
HERALMVNRLQKLTRMLRVVPDPKWKQEQQELIKRLK | 0.774
HERALMVNRLQKLTRMLRVTPDPKWKQEQQELIKRLK | 1.13
HERALMVNRLQKLTRMLRVFPDPKWKQEQQELIKRLK | 1.39
HERALMVNRLQKLTRMLRVDPDPKWKQEQQELIKRLK | 1.3
HERALMVNRLQKLTRMLRVNPDPKWKQEQQELIKRLK | 1.26
HERALMVNRLQKLTRMLRVEPDPKWKQEQQELIKRLK | 0.232
HERALMVNRLQKLTRMLRVHCDPKWKQEQQELIKRLK | 0.966
HERALMVNRLQKLTRMLRVHKDPKWKQEQQELIKRLK | 1.04
HERALMVNRLQKLTRMLRVHEDPKWKQEQQELIKRLK | 1.09
HERALMVNRLQKLTRMLRVHIDPKWKQEQQELIKRLK | 0.664
HERALMVNRLQKLTRMLRVHDDPKWKQEQQELIKRLK | 1.37
HERALMVNRLQKLTRMLRVHADPKWKQEQQELIKRLK | 1.18

Variant | folding stability dG [kcal/mol]
HERALMVNRLQKLTRMLRVHLDPKWKQEQQELIKRLK | 0.688
HERALMVNRLQKLTRMLRVHWDPKWKQEQQELIKRLK | 2.02
HERALMVNRLQKLTRMLRVHRDPKWKQEQQELIKRLK | 0.878
HERALMVNRLQKLTRMLRVHNDPKWKQEQQELIKRLK | 1.51
HERALMVNRLQKLTRMLRVHFDPKWKQEQQELIKRLK | 2.15
HERALMVNRLQKLTRMLRVHQDPKWKQEQQELIKRLK | 1.36
HERALMVNRLQKLTRMLRVHHDPKWKQEQQELIKRLK | 1.57
HERALMVNRLQKLTRMLRVHTDPKWKQEQQELIKRLK | 0.908
HERALMVNRLQKLTRMLRVHGDPKWKQEQQELIKRLK | 0.843
HERALMVNRLQKLTRMLRVHYDPKWKQEQQELIKRLK | 2.16
HERALMVNRLQKLTRMLRVHMDPKWKQEQQELIKRLK | 1.13
HERALMVNRLQKLTRMLRVHVDPKWKQEQQELIKRLK | 0.805
HERALMVNRLQKLKRMLRVHPDPKWKQEQQELIKRLK | 1.34
HERALMVNRLQKLVRMLRVHPDPKWKQEQQELIKRLK | 0.832
HERALMVNRLQKLRRMLRVHPDPKWKQEQQELIKRLK | 1.3
HERALMVNRLQKLERMLRVHPDPKWKQEQQELIKRLK | 1.19
HERALMVNRLQKLLRMLRVHPDPKWKQEQQELIKRLK | 1.13
HERALMVNRLQKLDRMLRVHPDPKWKQEQQELIKRLK | 0.505
HERALMVNRLQKLHRMLRVHPDPKWKQEQQELIKRLK | 0.917
HERALMVNRLQKLNRMLRVHPDPKWKQEQQELIKRLK | 1.39
HERALMVNRLQKLARMLRVHPDPKWKQEQQELIKRLK | 1.32
HERALMVNRLQKLMRMLRVHPDPKWKQEQQELIKRLK | 1.21
HERALMVNRLQKLQRMLRVHPDPKWKQEQQELIKRLK | 0.979

Variant | folding stability dG [kcal/mol]
HERALMVNRLQKLGRMLRVHPDPKWKQEQQELIKRLK | 0.779
HERALMVNRLQKLWRMLRVHPDPKWKQEQQELIKRLK | 0.988
HERALMVNRLQKLSRMLRVHPDPKWKQEQQELIKRLK | 1.03
HERALMVNRLQKLYRMLRVHPDPKWKQEQQELIKRLK | 1.15
HERALMVNRLQKLIRMLRVHPDPKWKQEQQELIKRLK | 1.35
HERALMVNRLQKLFRMLRVHPDPKWKQEQQELIKRLK | 0.771
HERALMVNRLQKVTRMLRVHPDPKWKQEQQELIKRLK | 0.655
HERALMVNRLQKCTRMLRVHPDPKWKQEQQELIKRLK | -0.58
HERALMVNRLQKITRMLRVHPDPKWKQEQQELIKRLK | 1.07
HERALMVNRLQKLTRMLYVHPDPKWKQEQQELIKRLK | 0.492
HERALMVNRLQKLTRMLKVHPDPKWKQEQQELIKRLK | 1.36
HERALMVNRLQKLTRMLVVHPDPKWKQEQQELIKRLK | 0.181
HERALMVNRLQKLTRMLGVHPDPKWKQEQQELIKRLK | 0.577
HERALMVNRLQKLTRMLHVHPDPKWKQEQQELIKRLK | 0.59
HERALMVNRLQKLTRMLEVHPDPKWKQEQQELIKRLK | 0.715
HERALMVNRLQKLTRMLAVHPDPKWKQEQQELIKRLK | 1.45
HERALMVNRLQKLTRMLMVHPDPKWKQEQQELIKRLK | 1.29
HERALMVNRLQKLTRMLNVHPDPKWKQEQQELIKRLK | 0.669
HERALMVNRLQKLTRMLFVHPDPKWKQEQQELIKRLK | 0.738
HERALMVNRLQKLTRMLIVHPDPKWKQEQQELIKRLK | 0.881
HERALMVNRLQKLTRMLQVHPDPKWKQEQQELIKRLK | 1.19
HERALMVNRLQKLTRMLTVHPDPKWKQEQQELIKRLK | 0.657
HERALMVNRLQKLTRMLLVHPDPKWKQEQQELIKRLK | 1.2

Variant | folding stability dG [kcal/mol]
HERALMVNRLQKLTRMLSVHPDPKWKQEQQELIKRLK | 0.989
HERALMVNRLQKLTRMLWVHPDPKWKQEQQELIKRLK | 0.417
HERALMVNRLQKLTRMLDVHPDPKWKQEQQELIKRLK | 0.512
HERALMVNRLQKLTRMLRTHPDPKWKQEQQELIKRLK | 1.37
HERALMVNRLQKLTRMLRLHPDPKWKQEQQELIKRLK | 1.48
HERALMVNRLQKLTRMLRHHPDPKWKQEQQELIKRLK | 1.38
HERALMVNRLQKLTRMLRNHPDPKWKQEQQELIKRLK | 1.44
HERALMVNRLQKLTRMLRMHPDPKWKQEQQELIKRLK | 1.37
HERALMVNRLQKLTRMLREHPDPKWKQEQQELIKRLK | 1.19
HERALMVNRLQKLTRMLRKHPDPKWKQEQQELIKRLK | 1.55
HERALMVNRLQKLTRMLRQHPDPKWKQEQQELIKRLK | 1.41
HERALMVNRLQKLTRMLRSHPDPKWKQEQQELIKRLK | 1.23
HERALMVNRLQKLTRMLRAHPDPKWKQEQQELIKRLK | 1.21
HERALMVNRLQKLTRMLRYHPDPKWKQEQQELIKRLK | 1.57
HERALMVNRLQKLTRMLRRHPDPKWKQEQQELIKRLK | 1.55
HERALMVNRLQKLTRMLRDHPDPKWKQEQQELIKRLK | 1.13
HERALMVNRLQKLTRMLRIHPDPKWKQEQQELIKRLK | 1.51
HERALMVNRLQKLTRMLRFHPDPKWKQEQQELIKRLK | 1.51
HERALMVNRLQKLTRMLRGHPDPKWKQEQQELIKRLK | 1.34
HERALMVNRLQKLTRMLRWHPDPKWKQEQQELIKRLK | 1.21
HERALMVNRLQKLTRQLRVHPDPKWKQEQQELIKRLK | -0.015
HERALMVNRLQKLTRALRVHPDPKWKQEQQELIKRLK | 0.312
HERALMVNRLQKLTRILRVHPDPKWKQEQQELIKRLK | 0.699

Variant | folding stability dG [kcal/mol]
HERALMVNRLQKLTRSLRVHPDPKWKQEQQELIKRLK | -0.421
HERALMVNRLQKLTRLLRVHPDPKWKQEQQELIKRLK | 1.35
HERALMVNRLQKLTRRLRVHPDPKWKQEQQELIKRLK | 0.261
HERALMVNRLQKLTRYLRVHPDPKWKQEQQELIKRLK | 0.489
HERALMVNRLQKLTRHLRVHPDPKWKQEQQELIKRLK | -0.229
HERALMVNRLQKLTRWLRVHPDPKWKQEQQELIKRLK | 1.26
HERALMVNRLQKLTRFLRVHPDPKWKQEQQELIKRLK | 0.018
HERALMVNRLQKLTRKLRVHPDPKWKQEQQELIKRLK | 0.733
HERALMVNRLQKLTRMLRVHPKPKWKQEQQELIKRLK | 1.23
HERALMVNRLQKLTRMLRVHPAPKWKQEQQELIKRLK | 0.299
HERALMVNRLQKLTRMLRVHPIPKWKQEQQELIKRLK | 0.677
HERALMVNRLQKLTRMLRVHPFPKWKQEQQELIKRLK | 1.07
HERALMVNRLQKLTRMLRVHPEPKWKQEQQELIKRLK | 0.749
HERALMVNRLQKLTRMLRVHPHPKWKQEQQELIKRLK | 1.3
HERALMVNRLQKLTRMLRVHPGPKWKQEQQELIKRLK | 0.117
HERALMVNRLQKLTRMIRVHPDPKWKQEQQELIKRLK | 1.09
HERALMVNRLQKLTRMMRVHPDPKWKQEQQELIKRLK | 0.852
HERALMVNRLQKLTRMNRVHPDPKWKQEQQELIKRLK | 0.006
HERALMVNRLQKLTRMVRVHPDPKWKQEQQELIKRLK | -0.191
HERALMVNRLQKLTRMQRVHPDPKWKQEQQELIKRLK | -0.895
HERALMVNRLQKLTRMARVHPDPKWKQEQQELIKRLK | -0.037
HERALMVNRLQKLTRMYRVHPDPKWKQEQQELIKRLK | 0.234
HERALMVNRLQKLTRMSRVHPDPKWKQEQQELIKRLK | -0.127

Variant | folding stability dG [kcal/mol]
HERALMVNRLQKLTRMCRVHPDPKWKQEQQELIKRLK | -0.743
HERALMVNRLQKLTRMRRVHPDPKWKQEQQELIKRLK | -0.68
HERALMVNRLQYLTRMLRVHPDPKWKQEQQELIKRLK | 2.31
HERALMVNRLQWLTRMLRVHPDPKWKQEQQELIKRLK | 2.78
HERALMVNRLQKLTVMLRVHPDPKWKQEQQELIKRLK | 0.95
HERALMVNRLQKLTWMLRVHPDPKWKQEQQELIKRLK | 0.914
HERALMVNRLQKLTMMLRVHPDPKWKQEQQELIKRLK | 1.33
HERALMVNRLQKLTTMLRVHPDPKWKQEQQELIKRLK | 0.631
HERALMVNRLQKLTNMLRVHPDPKWKQEQQELIKRLK | 1
HERALMVNRLQKLTAMLRVHPDPKWKQEQQELIKRLK | 1.32
HERALMVNRLQKLTIMLRVHPDPKWKQEQQELIKRLK | 1.14
HERALMVNRLQKLTYMLRVHPDPKWKQEQQELIKRLK | 0.918
HERALMVNRLQKLTEMLRVHPDPKWKQEQQELIKRLK | 1.42
HERALMVNRLQKLTGMLRVHPDPKWKQEQQELIKRLK | 0.365
HERALMVNRLQKLTFMLRVHPDPKWKQEQQELIKRLK | 0.829
HERALMVNRLQKLTQMLRVHPDPKWKQEQQELIKRLK | 1.48
HERALMVNRLQKLTDMLRVHPDPKWKQEQQELIKRLK | 1.01
HERALMVNRLQKLTHMLRVHPDPKWKQEQQELIKRLK | 1.12
HERALMVNRLQKLTLMLRVHPDPKWKQEQQELIKRLK | 1.31

Source: the MegaScale stability set (Tsuboyama et al. 2023)
